This note sets out measurements from patent US20220033501A1 (SHANGHAI PHARMAEXPLORER, published 2022).

For assay [1], the target named is T1, human TIM-3 on CHOK1 stable cell line (CHOK1-hTIM-3) (human, UniProt Q8TDQ0 22-301).
T1 sequence: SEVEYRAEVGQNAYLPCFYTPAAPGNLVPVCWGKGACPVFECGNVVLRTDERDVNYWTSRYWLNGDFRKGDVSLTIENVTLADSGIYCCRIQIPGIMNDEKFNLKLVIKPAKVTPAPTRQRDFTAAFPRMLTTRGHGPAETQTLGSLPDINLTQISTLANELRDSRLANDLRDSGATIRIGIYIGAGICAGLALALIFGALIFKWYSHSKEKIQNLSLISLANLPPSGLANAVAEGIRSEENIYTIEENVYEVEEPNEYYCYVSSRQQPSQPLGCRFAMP
The assay is described as follows: FACS, CHOK1-hTIM-3 cells, 0 nM antibody. In general terms: A flow cytometer gives signals particle by particle.

In assay [2] the target is T1, human TIM-3 on CHOK1 stable cell line …. The assay is described as follows: FACS, CHOK1-hTIM-3 cells, 40 nM antibody.
Assay [3] shares this target. The assay is described as follows: FACS, CHOK1-hTIM-3 cells, 0.013 nM antibody.
Assay [4] addresses T2, monkey TIM-3 extracellular domain protein with hFc tag (cTIM-3-hFc) (monkey).
T2 construct: not shown: human IgG Fc fragment (hFc) of the pCpC vector
T2 chain: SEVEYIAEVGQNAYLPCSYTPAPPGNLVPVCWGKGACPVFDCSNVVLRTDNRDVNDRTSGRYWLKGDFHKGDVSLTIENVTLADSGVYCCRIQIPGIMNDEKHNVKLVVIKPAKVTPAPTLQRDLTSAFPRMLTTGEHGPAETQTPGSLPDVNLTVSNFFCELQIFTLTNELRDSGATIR
The assay is described as follows: ELISA, coated monkey TIM-3 ECD protein, 6.6667 nM antibody. A general note: ELISA stands for enzyme-linked immunosorbent assay.

The target of assay [5] is T3, human TIM-3 protein with hFc tag (hTIM-3-hFc protein) (human, UniProt Q8TDQ0 22-200).
T3 construct: also called immunogen 1; human TIM-3 extracellular domain protein; not shown: human IgG Fc fragment (hFc) of the pCpC vector
T3 sequence: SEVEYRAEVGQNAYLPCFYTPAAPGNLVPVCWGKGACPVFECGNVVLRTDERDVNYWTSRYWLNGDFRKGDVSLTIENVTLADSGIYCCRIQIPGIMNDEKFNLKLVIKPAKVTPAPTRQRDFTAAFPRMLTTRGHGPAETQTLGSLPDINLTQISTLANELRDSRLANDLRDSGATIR
Briefly: ELISA, coated hTIM-3-hFc; antibody 0.0667 nM. The source says: (§1) The amino acid sequence 22-200 of the extracellular domain of the human TIM-3 protein described in the step of Example 1 (as shown in SEQ ID NO. 71 in the sequence listing) was cloned into a pCpC vector having a human IgG Fc fragment (hFc), and transfected into HEK293 cells. The cell culture medium was collected, and purified to obtain the human TIM-3 protein with hFc tag (herein referred to as hTIM-3-hFc protein). The amino acid sequence 22-201 of the extracellular domain of the monkey TIM-3 protein (as shown in SEQ ID NO. 72 in the sequence listing) was cloned into a pCpC vector having a human IgG Fc fragment (hFc), and transfected into HEK293 cells. The cell culture medium was collected, and purified to obtain the monkey TIM-3 protein with hFc tag (herein referred to as cTIM-3-hFc protein). […] The cell culture medium was collected, and purified to obtain the murine TIM-3 protein with hFc tag (herein referred to as mTIM-3-hFc protein). Purified human, monkey, and mouse TIM-3 extracellular domain proteins (hTIM-3-hFc, cTIM-3-hFc, and mTIM-3-hFc) were diluted with PBS to a final concentration of 1.0 μg/ml and then added to a 96-well ELISA plate with 100 μl per well. The plate was sealed with plastic film and incubated overnight at 4° C. The plate was washed 4 times with the plate washing solution (PBS+0.01% Tween20) on the next day, and added with the blocking solution (PBS+0.01% Tween20+1% BSA) and sealed at room temperature for 1-2 hours. The blocking solution was poured out. 50-100 μl of the antibody sample to be tested was added to each well. The plate was incubated at 37° C. for 1-2 hours, and washed 2-3 times with plate washing solution (PBS+0. 01% Tween20). HRP (horseradish peroxidase) labeled secondary antibody was added. The plate was incubated at 37° C. for 1-2 hours, and washed 2-3 times with plate washing solution (PBS+0. 01% Tween20). […] of TMB substrate was added to each well. After incubated at room temperature for 15-30 minutes, the plate was added with […] stop solution (1.0N HCl) to each well. An ELISA plate reader (TiterMax 384plus, Molecular Device) was used to read the A450 nm value.

Assay [6] has as its target T4, monkey TIM-3 protein with hFc tag (cTIM-3-hFc protein) (monkey; human).
T4 construct: Made in HEK293 cells; also called monkey TIM-3 extracellular domain protein; not shown: human IgG Fc fragment (hFc) of the pCpC vector
T4 chain: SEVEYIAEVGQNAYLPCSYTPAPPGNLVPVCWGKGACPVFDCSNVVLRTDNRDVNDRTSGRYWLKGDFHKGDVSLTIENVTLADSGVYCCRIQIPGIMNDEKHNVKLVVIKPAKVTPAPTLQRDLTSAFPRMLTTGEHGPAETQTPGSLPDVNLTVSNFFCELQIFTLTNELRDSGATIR
The assay is described as follows: ELISA, coated cTIM-3-hFc; antibody 0.6667 nM.
From the text: as §1

Assay [7] has as its target T5, murine TIM-3 protein with hFc tag (mTIM-3-hFc protein) (mouse; human, UniProt Q8VIM0 29-191).
T5 construct: Made in HEK293 cells; also called mouse TIM-3 extracellular domain protein; not shown: human IgG Fc fragment (hFc) of the pCpC vector
T5 chain: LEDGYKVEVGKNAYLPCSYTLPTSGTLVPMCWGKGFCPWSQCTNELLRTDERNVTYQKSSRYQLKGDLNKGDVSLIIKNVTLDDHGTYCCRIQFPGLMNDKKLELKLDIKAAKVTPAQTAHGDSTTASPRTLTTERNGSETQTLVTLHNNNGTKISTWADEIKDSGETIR
The assay is described as follows: ELISA, coated mTIM-3-hFc; antibody 0.0001 nM.
From the text: as §1

Assay [8] deals with T5, murine TIM-3 protein with hFc tag …. Briefly: ELISA, coated mTIM-3-hFc; antibody 0.0007 nM.
From the text: as §1

Assay [9] has the same target. The assay is described as follows: ELISA, coated mTIM-3-hFc; antibody 66.667 nM.
From the text: as §1

For assay [10], the target named is T3, human TIM-3 protein with hFc tag …. The assay is described as follows: ELISA, coated hTIM-3-hFc; antibody 0 nM (blank).
From the text: as §1

B1: 57F4E5 fully human TIM-3 antibody (human IgG4, kappa) (antibody, V domains shown)
VH: EVQLVESGGGLVQPGGSLRLSCAASGFTFSSYWMSWVRQAPGKGLEWVANIKQDGSEKYYVDSVKGRFTISRDSAKNSLYLQMNSLRAEDTAMYFCARDSNFFDYWGQGTLVTVSS
VL: ETVMTQSPATLSVSPGERATLSCRASQSVSSNLAWYQRKPGQAPRLLIYFSSTRATGIPARFSGSGSGTEFTLTISSLQSEDFAVYYCQQYNNWPLTFGGGTKVEIK
Turning to B1, the Mean fluorescence intensity in assay [1] is 2.9; in assay [2], 147; in [3], 9.6. In addition, the OD450 in assay [4] amounted to 3.29.

B2: 57F4E5 (TIM-3 antibody purified from hybridoma, chimeric antibody of Example 2) (antibody, V domains shown)
VH: EVQLVESGGGLVQPGGSLRLSCAASGFTFSSYWMSWVRQAPGKGLEWVANIKQDGSEKYYVDSVKGRFTISRDSAKNSLYLQMNSLRAEDTAMYFCARDSNFFDYWGQGTLVTVSS
VL: ETVMTQSPATLSVSPGERATLSCRASQSVSSNLAWYQRKPGQAPRLLIYFSSTRATGIPARFSGSGSGTEFTLTISSLQSEDFAVYYCQQYNNWPLTFGGGTKVEIK
notes: From hybridoma of Harbour H2L2 transgenic mice: human variable regions, rat constant regions
For the molecule B2, the OD450 in [5] was determined as 2.83; in assay [6] it was 3.45; in assay [7], 0.63; in assay [8], 0.67; in assay [9] it was 0.74; in assay [10], 0.12.

B3: 18D2H2 (TIM-3 antibody purified from hybridoma, chimeric antibody of Example 2) (antibody, V domains shown)
VH: EVQLVESGGDLVQPGGSLRLSCAASGFTFSTYWMTWVRQAPGRGLEWVANIKQDGSAKYYVDSVKGRFTLSRDDAKNSLYLQMNSLRAEDTAVYYCARGSNWFDYWGQGTLVTVSS
VL: ETVMTQSPATLSVSPGERATLSCRANQNVYSNLAWYQQKPGQAPRLLIYDASTRATGFPARFSGSGSGTEFTLTISSLQSEDFAVYYCQQYNNWPLTFGGGTKVEIK
notes: as for B2
With B3, the OD450 turned out to be 0.35 in assay [5]; 1.89 in [6]; 0.64 in [7]; 0.64 in assay [8]; 0.85 in assay [9]; 0.11 in assay [10].

B4: 134H3G6 (TIM-3 antibody purified from hybridoma, chimeric antibody of Example 2) (antibody, V domains shown)
VH: EVQLVESGGGLVQPGGSLRLSCAASGFTFSNSWMTWVRQAPGKGLEWVANIKQAGTEKYYVDSVKGRFTISRDNAKNSLYLQMNSLRAEDTAVYYCNSGSNYFDYWGQGTLVTVSS
VL: EIVMTQSPATLSVSPGERATLSCRARQNFYSNLAWYQQKPGQAPRLLIYGASTRATGIPARFSGSGSGTEFTLTISSLQSEDFAVYYCQQYNNWPLTFGGGTKVEIK
notes: as for B2
With B4, the OD450 in assay [5] came to 0.2; in [6], 1.22; in assay [7], 0.64; in assay [8] it was 0.62; in assay [9], 0.7; in assay [10], 0.12.

B5: 134H3G6 fully human TIM-3 antibody (human IgG4, kappa) (antibody, V domains shown)
VH: EVQLVESGGGLVQPGGSLRLSCAASGFTFSNSWMTWVRQAPGKGLEWVANIKQAGTEKYYVDSVKGRFTISRDNAKNSLYLQMNSLRAEDTAVYYCNSGSNYFDYWGQGTLVTVSS
VL: EIVMTQSPATLSVSPGERATLSCRARQNFYSNLAWYQQKPGQAPRLLIYGASTRATGIPARFSGSGSGTEFTLTISSLQSEDFAVYYCQQYNNWPLTFGGGTKVEIK
For the molecule B5, the Mean fluorescence intensity in assay [1] came to 2.8; in assay [2] it was 218; in [3], 13.5. In assay [4], this molecule came in with an OD450 of 3.19.

B6: 39E5H1 (TIM-3 antibody purified from hybridoma, chimeric antibody of Example 2) (antibody, V domains shown)
VH: EVQLVESGGGLVQPGGSLRLSCAASGFTFSSYWMSWVRQAPGKGLEWVANIKRGGSERYYVDSVKGRFTISGDNAKNSVYLQMNSLRAEDTAVYYCARGSNWFDPWGQGTLVTVSS
VL: ETVMTQSPAILSVSPGERATLSCRASQSVYSNLAWYQQKLGQAPRLLIYDASTRATGIPARFSGSGSGTEFTLTISSLQSEDFAVYYCQQYNNWPITFGQGTRLEIK
notes: as for B2
Regarding B6, the OD450 in assay [5] was found to be 1.78; in assay [6] it was 3.41; in assay [7] it was 0.64; in assay [8], 0.63; in assay [9], 0.9; in assay [10] it was 0.12.

B7: 215A8F2 (TIM-3 antibody purified from hybridoma, chimeric antibody of Example 2) (antibody, V domains shown)
VH: QVQLQQWGAGLLKPSETLSLTCTVYGGSFSGYYWNWIRQPPGKGLEWLGEINHSGSTNYNPSLKRRVTISVDTSKNQFSLKLSSVTAADTAVYYCARVYYYGPFDFWGQGTLVTVSS
VL: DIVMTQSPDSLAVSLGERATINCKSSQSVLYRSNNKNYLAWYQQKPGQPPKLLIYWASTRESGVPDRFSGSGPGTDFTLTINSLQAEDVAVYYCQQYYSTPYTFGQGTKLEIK
notes: as for B2
With B7, the OD450 worked out at 1 in assay [5]; 3.26 in [6]; 0.63 in assay [7]; 0.67 in assay [8]; 0.77 in [9]; 0.11 in [10].

B8: 34B6D8 (TIM-3 antibody purified from hybridoma, chimeric antibody of Example 2) (antibody, V domains shown)
VH: EVQLVESGGGLVQPGGSLRLSCAASGFTFSTYWMTWVRQAPGKRLEWVANIKQGGGDKYYVDSVKGRFTISTDNAKNSLYLQMNSLRAEDTAVYYCARGSNWFDPWGQGTLVTVSS
VL: EIVMTQSPATLSMSPGERATLSCRASQSVYDNLAWYQQKPGQAPRLLIYGASTRATGIPARFSGSGSGTEFTLTISSLQSEDFALYYCQQYTHWPITFGQGTRLEIK
notes: as for B2
In the case of B8, the OD450 in [5] is 1.62; in [6], 3.44; in [7], 0.62; in assay [8], 0.65; in [9] it was 1.1; in [10] it was 0.12.

B9: 7A4F10 (TIM-3 antibody purified from hybridoma, chimeric antibody of Example 2) (antibody, V domains shown)
VH: EVQLLESGGGLVQPGGSLRLSCAASGFTFRTHLISWVRQAPGKGLEWVAAITGSGGSTYYADSVKGRFIISRDNSKNTLFLQMNSLRAEDTAVYYCAKDGGSGSYDDFWGQGTLVTVSS
VL: ETVLTQSPVTLSLSPGERATLSCRASQSVGSYLAWYQQKPGQAPRLLIYDASNRATGIPARFSGSGSGTDFTLTISSLEPEDFAVYYCQQRSNWPPTFGQGTKVEIK
notes: as for B2
As to B9, the OD450 in assay [5] is 0.21; in [6], 1.35; in assay [7], 0.65; in assay [8] it was 0.64; in [9], 0.66; in assay [10], 0.11.
